In patent US20240261333A1 (published 2024):

T1: KRT6B (human, UniProt P04259 2-564)
T1 construct: also called NP_00546.2
T1 sequence (looked up): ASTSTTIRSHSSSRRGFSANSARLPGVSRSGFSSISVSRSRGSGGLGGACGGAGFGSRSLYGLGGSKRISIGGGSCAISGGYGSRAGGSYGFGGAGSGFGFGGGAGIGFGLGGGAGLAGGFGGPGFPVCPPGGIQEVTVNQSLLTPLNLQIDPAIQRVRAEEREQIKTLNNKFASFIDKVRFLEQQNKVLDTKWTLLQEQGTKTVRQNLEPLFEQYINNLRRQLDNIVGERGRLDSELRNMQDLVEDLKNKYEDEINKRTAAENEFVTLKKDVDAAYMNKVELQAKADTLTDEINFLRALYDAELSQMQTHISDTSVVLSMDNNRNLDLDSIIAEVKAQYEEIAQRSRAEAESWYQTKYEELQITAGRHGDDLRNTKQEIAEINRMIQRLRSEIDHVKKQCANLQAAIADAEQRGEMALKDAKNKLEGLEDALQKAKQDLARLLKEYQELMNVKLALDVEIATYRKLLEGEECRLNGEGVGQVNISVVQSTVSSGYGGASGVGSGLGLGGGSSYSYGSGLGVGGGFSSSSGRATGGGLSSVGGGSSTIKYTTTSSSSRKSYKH

T2: ATXN2L (UniProt Q8WWM7 1-1075)
T2 construct: Endogenous protein found in the co-IP by mass spectrometry; also called NP_009176.2
T2 sequence (looked up): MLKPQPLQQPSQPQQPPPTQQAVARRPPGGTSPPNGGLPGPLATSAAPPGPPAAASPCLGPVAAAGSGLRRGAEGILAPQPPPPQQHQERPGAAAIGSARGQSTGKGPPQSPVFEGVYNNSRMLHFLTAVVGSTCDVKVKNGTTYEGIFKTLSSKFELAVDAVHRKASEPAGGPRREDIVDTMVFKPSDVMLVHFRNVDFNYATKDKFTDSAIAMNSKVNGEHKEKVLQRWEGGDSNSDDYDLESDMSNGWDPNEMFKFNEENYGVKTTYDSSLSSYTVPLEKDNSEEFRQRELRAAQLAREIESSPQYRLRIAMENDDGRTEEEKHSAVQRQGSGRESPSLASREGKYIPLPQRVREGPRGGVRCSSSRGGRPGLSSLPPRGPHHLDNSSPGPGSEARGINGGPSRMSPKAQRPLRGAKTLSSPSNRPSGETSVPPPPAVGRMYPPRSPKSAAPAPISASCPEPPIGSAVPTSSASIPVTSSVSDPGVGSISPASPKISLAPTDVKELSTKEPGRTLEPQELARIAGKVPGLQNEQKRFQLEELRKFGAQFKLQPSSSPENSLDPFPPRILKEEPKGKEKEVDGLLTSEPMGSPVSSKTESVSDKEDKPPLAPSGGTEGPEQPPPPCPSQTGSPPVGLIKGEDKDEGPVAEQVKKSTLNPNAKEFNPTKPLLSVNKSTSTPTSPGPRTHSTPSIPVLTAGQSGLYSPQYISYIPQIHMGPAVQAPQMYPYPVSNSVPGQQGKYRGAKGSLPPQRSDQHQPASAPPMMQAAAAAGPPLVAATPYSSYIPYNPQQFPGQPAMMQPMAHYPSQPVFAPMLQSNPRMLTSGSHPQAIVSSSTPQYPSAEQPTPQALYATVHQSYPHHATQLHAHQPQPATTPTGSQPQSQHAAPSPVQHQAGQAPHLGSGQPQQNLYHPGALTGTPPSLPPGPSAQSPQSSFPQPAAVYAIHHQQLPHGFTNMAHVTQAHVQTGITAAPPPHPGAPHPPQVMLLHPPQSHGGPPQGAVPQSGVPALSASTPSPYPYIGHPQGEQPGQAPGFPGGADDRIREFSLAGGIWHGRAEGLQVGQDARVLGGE


Experiments:
G3BP1 = target: T3, G3BP1 (human, UniProt Q13283 2-466); test: co-IP, anti-FLAG, lysate of cells with N-FLAG B3GNT2; mass spectrometry
T3 construct: also called NP_005745.1
T3 sequence (Q13283 2-466 limits assumed): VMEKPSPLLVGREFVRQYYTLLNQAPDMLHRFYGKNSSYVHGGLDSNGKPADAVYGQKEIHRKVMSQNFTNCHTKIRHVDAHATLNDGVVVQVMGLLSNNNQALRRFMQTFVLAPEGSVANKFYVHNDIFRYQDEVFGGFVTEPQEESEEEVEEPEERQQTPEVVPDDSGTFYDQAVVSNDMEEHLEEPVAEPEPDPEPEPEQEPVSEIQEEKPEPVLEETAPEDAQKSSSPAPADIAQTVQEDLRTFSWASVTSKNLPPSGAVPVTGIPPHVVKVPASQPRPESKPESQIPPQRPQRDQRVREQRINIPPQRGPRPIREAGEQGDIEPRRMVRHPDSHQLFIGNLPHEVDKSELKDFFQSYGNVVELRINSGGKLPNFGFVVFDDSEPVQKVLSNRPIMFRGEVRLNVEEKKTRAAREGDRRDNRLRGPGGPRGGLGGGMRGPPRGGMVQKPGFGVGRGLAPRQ
Protocol: (§1) Cells were plated in 10-cm cell culture dishes and grown to 60-80% confluency. For each condition, two biological replicates were harvested for co-IP. Cells were washed with PBS and 4 mL of lysis buffer (20 mM HEPES, 1% Triton X-100, 150 mM NaCl, 1 mM EDTA, and 10% glycerol) containing protease inhibitor cocktail was added. Cells were scraped and lysate was incubated at 4° C. under rotary agitation for 1 h. Lysate was centrifuged at 14,000×g for 10 min at 4° C. Supernatant was transferred to a new tube and an aliquot was taken as the input. […] For Western blots, 10 μg/mL Chicken Anti-FLAG (Aves labs ET-DY100) and IgY control (R&D Systems AB-101-C) antibodies were biotinylated (Thermo Fisher Scientific 90407) and added to the respective conditions. Lysates with antibodies were incubated at 4° C. under rotary agitation overnight. For each mL of lysate, 50 μL of Pierce Protein A/G Magnetic Beads (Mass spectrometry; Thermo Fisher Scientific 88803) or Pierce Streptavidin Magnetic Beads (Western blot; Thermo Fisher Scientific 88817) was washed twice with lysis buffer. Lysates with antibodies were added to the beads and incubated at 4° C. under rotary agitation for 4 h. Beads were washed with lysis buffer 3 times and resuspended in lysis buffer for storage.
(§2) Magnetic beads were resuspended in 100 mM Tris pH 7.8, reduced, alkylated and digested with trypsin at 37° ° C. overnight. This solution was subjected to solid phase extraction to concentrate the peptides and remove unwanted reagents followed by injection onto a Shimadzu HPLC with fraction collector. Eight fractions were collected and after concentration were injected on a Waters NanoAcquity HPLC equipped with a self-packed Aeris 3 μm C18 analytical column 0.075 mm by 20 cm, (Phenomenex). Peptides were eluted using standard reverse-phase gradients. The effluent from the column was analyzed using a Thermo Orbitrap Elite mass spectrometer (nanospray configuration) operated in a data dependent manner for 54 minutes. The resulting fragmentation spectra were correlated against the known database using Proteome Discover 1.4 (Thermo Fisher Scientific).

HNRNPK = target: T4, HNRNPK (human, UniProt P61978-3 1-440, limits assumed); test: as above
T4 construct: also called NP_001305115.1 (+1)
T4 sequence (P61978 other isoform, or with tags, fused parts or gaps limits assumed): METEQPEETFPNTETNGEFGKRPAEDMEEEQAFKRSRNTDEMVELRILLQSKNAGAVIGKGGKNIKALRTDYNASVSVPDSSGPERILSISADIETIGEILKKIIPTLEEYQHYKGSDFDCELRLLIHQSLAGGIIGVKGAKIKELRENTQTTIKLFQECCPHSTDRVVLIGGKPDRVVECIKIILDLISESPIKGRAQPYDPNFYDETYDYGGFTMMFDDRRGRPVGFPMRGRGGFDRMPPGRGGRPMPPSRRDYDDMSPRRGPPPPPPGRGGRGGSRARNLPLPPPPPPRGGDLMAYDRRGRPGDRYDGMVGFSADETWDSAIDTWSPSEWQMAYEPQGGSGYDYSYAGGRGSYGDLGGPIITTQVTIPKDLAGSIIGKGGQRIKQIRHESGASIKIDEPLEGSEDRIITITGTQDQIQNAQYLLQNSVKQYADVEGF
Protocol: as §1, §2

KRT6B = target: T1, KRT6B; test: as above
Protocol: as §1, §2

CTSD = target: T5, CTSD (UniProt P07339 65-412, limits assumed); test: co-IP with anti-FLAG, mass spectrometry; N-FLAG B3GNT2
T5 construct: Endogenous protein found in the co-IP by mass spectrometry; also called NP_001900.1
T5 sequence (P07339 65-412 limits assumed): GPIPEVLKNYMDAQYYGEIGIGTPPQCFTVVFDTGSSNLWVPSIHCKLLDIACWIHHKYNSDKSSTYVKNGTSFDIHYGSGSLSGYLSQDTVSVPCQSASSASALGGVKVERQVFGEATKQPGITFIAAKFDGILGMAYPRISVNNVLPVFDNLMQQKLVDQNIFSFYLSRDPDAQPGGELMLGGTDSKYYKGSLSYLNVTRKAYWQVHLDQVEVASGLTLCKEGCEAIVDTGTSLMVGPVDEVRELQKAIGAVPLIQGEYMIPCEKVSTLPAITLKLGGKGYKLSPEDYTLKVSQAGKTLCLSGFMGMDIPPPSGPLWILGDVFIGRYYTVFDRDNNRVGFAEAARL
Protocol: as §1, §2

ATXN2L = target: T2, ATXN2L; test: as above
Protocol: as §1, §2

| Binder | co-IP mass spectrometry count (G3BP1) | co-IP mass spectrometry count (HNRNPK) | co-IP mass spectrometry count (KRT6B) | co-IP mass spectrometry count (CTSD) | co-IP mass spectrometry count (ATXN2L) |
| --- | --- | --- | --- | --- | --- |
| N-terminal FLAG tagged B3GNT2 (enzyme, human, UniProt Q9NY97 1-397, looked up, Overexpressed in cells and pulled down from the lysate with mouse anti-FLAG antibody; also called N-FLAG B3GNT2; N-term FLAG; not shown: N-terminal FLAG tag) MSVGRRRIKLLGILMMANVFIYFIMEVSKSSSQEKNGKGEVIIPKEKFWKISTPPEAYWNREQEKLNRQYNPILSMLTNQTGEAGRLSNISHLNYCEPDLRVTSVVTGFNNLPDRFKDFLLYLRCRNYSLLIDQPDKCAKKPFLLLAIKSLTPHFARRQAIRESWGQESNAGNQTVVRVFLLGQTPPEDNHPDLSDMLKFESEKHQDILMWNYRDTFFNLSLKEVLFLRWVSTSCPDTEFVFKGDDDVFVNTHHILNYLNSLSKTKAKDLFIGDVIHNAGPHRDKKLKYYIPEVVYSGLYPPYAGGGGFLYSGHLALRLYHITDQVHLYPIDDVYTGMCLQKLGLVPEKHKGFRTFDIEEKNKNNICSYVDLMLVHSRKPQEMIDIWSQLQSAHLKC | 27 | 9 | 370 | – | – |
| N-terminal FLAG tagged B3GNT2 (enzyme, human, UniProt Q9NY97 1-397, looked up, FLAG-tagged ORF overexpressed in cells; bait of the anti-FLAG co-IP; also called N-FLAG B3GNT2; N-term FLAG; not shown: FLAG tag at the N-terminus) MSVGRRRIKLLGILMMANVFIYFIMEVSKSSSQEKNGKGEVIIPKEKFWKISTPPEAYWNREQEKLNRQYNPILSMLTNQTGEAGRLSNISHLNYCEPDLRVTSVVTGFNNLPDRFKDFLLYLRCRNYSLLIDQPDKCAKKPFLLLAIKSLTPHFARRQAIRESWGQESNAGNQTVVRVFLLGQTPPEDNHPDLSDMLKFESEKHQDILMWNYRDTFFNLSLKEVLFLRWVSTSCPDTEFVFKGDDDVFVNTHHILNYLNSLSKTKAKDLFIGDVIHNAGPHRDKKLKYYIPEVVYSGLYPPYAGGGGFLYSGHLALRLYHITDQVHLYPIDDVYTGMCLQKLGLVPEKHKGFRTFDIEEKNKNNICSYVDLMLVHSRKPQEMIDIWSQLQSAHLKC | – | – | – | 3 | 5 |
